T1: cyno CD137 (cynomolgus monkey, UniProt Q07011 24-186 (human entry), limits assumed)
T1 construct: also called cynomolgus monkey CD137
T1 chain: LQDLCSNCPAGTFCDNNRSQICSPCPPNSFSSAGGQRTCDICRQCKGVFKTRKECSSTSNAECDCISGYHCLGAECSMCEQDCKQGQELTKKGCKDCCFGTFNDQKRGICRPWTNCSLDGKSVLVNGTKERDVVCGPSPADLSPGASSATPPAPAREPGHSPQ

T2: Human CD3eg linker (human)
T2 construct: Single chain: CD3 epsilon and gamma subunits joined by a 29-mer linker, Flag-tag at the C-terminus; also called recombinant human CD3
T2 chain: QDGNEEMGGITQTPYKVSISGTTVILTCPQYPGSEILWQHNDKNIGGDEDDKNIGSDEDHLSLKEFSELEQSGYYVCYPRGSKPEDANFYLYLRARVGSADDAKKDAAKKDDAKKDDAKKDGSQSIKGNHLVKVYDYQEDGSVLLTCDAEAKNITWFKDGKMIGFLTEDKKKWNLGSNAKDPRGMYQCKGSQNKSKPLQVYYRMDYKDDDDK


Tests used:
cyno CD137 = biological target: T1, cyno CD137; assay: SPR Biacore T200, IgG captured on protein A, 25 C;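 also: antigens diluted in ACES running buffer at pH 7.4 were flowed over antibodies held on a CM3 chip bearing amine-coupled protein A, with buffer alone serving as blank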
human CD3 ed = human CD3 ed (human, UniProt P07766 23-126; P04234 22-105, limits assumed); assay: SPR Biacore T200, IgG captured on protein A, 25 C;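 also: antigens diluted in ACES running buffer at pH 7.4 were flowed over antibodies held on a CM3 chip bearing amine-coupled protein A, with buffer alone serving as blank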
Human CD137 ECD = biological target: T3, Human CD137 ECD (human); assay: SPR Biacore T200, 37 C, Ab captured on anti-human Fc, antigen as analyte;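 also: recombinant human CD137 flowed over antibodies held by amine-coupled anti-human Fc on a CM4 chip, run in ACES pH 7.4 buffer with 150 mM NaCl and 0.05% Tween 20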
T3 construct: also called human CD137 extracellular domain; recombinant human CD137

Human CD3eg linker = biological target: T2, Human CD3eg linker; assay: SPR Biacore T200, 25 C, Ab captured on anti-human Fc, antigen as analyte;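 also: Anti-Fc amine-coupled to a CM4 chip, recombinant human CD3 flowed over in 20 mM ACES buffer pH 7.4 with 150 mM NaCl and 0.05% Tween 20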
human CD137-Fc [1] = biological target: T4, human CD137-Fc (human, biotin-labeled); assay: bead ELISA on biotin-human CD137-Fc with 125 pmol/well free CD3e peptide as competitor;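 also: Streptavidin-coated magnetic beads in blocking buffer as the capture surface, well signal read as fluorescence 2 min after adding APS-5 substrate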
T4 construct: if 90 already holds the Fc, drop the second piece; also called biotin-labeled human CD137 fused to human IgG1 Fc fragment; biotin-human CD137-Fc; not shown: human IgG1 Fc fragment

human CD137-Fc [2] = biological target: T4, human CD137-Fc; assay: bead ELISA on biotin-human CD137-Fc, 0 pmol free CD3e peptide
human CD137-Fc [3] = biological target: T4, human CD137-Fc; assay: bead ELISA on biotin-human CD137-Fc, 125 vs 0 pmol free CD3e peptide;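 also: target captured on streptavidin-coated magnetic beads, signal read as fluorescence 2 min after adding APS-5 substrate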

| Binder | Kd (cyno CD137) [nM] | koff (cyno CD137) [s⁻¹] | kon (cyno CD137) [M⁻¹ s⁻¹] | Kd (human CD3 ed) [nM] | koff (human CD3 ed) [s⁻¹] | kon (human CD3 ed) [M⁻¹ s⁻¹] | Kd (Human CD137 ECD) [nM] | koff (Human CD137 ECD) [s⁻¹] | kon (Human CD137 ECD) [M⁻¹ s⁻¹] | Kd (Human CD3eg linker) [nM] | koff (Human CD3eg linker) [s⁻¹] | kon (Human CD3eg linker) [M⁻¹ s⁻¹] | ELISA signal (human CD137-Fc [1]) | ELISA signal (human CD137-Fc [2]) | Signal decrease (human CD137-Fc [3]) [%] |
| --- | --- | --- | --- | --- | --- | --- | --- | --- | --- | --- | --- | --- | --- | --- | --- |
| dBBDu167/L091 (antibody, V domains shown, IgG format; constant regions not specified) VH: QVQLVESGGGLVQPGRSLRLSCAASGFTFSNAWMHWVRQAPGKGLEWVAQIKDKGNLYAAYYAPSVKGRFTISRDDSKNSIYLQMNSLKTEDTAVYYCHYVHYASAGGGLPGFGVDAWGQGTTVTVSS VL: DIVMTQSPLSLPVTPGEPASISCSASESLLHNNRHTYLHWYQQKPGQAPRLLIYRVSNRFNGVPDRFSGSGSGTDFTLKISRVEAEDVGVYYCGQGTQVPFTFGQGTKLEIK | 4170 | 0.0101 | 2430 | 413 | 0.0216 | 52400 | – | – | – | – | – | – | – | – | – |
| dBBDu189/L116 (antibody, V domains shown, IgG format; constant regions not specified) VH: QVQLVESGGGLVQPGRSLRLSCAASGFTFSNAWMHWVRQAPGKGLEWIAQIKDRSNQYATYYAPSVKGRFTISRDDSKNSIYLQMNSLKTEDTAVYYCHYVHYAQASSLLPSFGVDAWGQGTTVTVSS VL: DIVMTQSPLSLPVTPGEPASISCSSSQELVHANRQIYLHWYQQKPGQAPRLLIYKVANRFPGVPDRFSGSGSGTDFTLKISRVEAEDVGVYYCAQGTQVPFTFGQGTKLEIK | 11100 | 0.00823 | 744 | 209 | 0.00434 | 20800 | – | – | – | – | – | – | – | – | – |
| dBBDu186/L096 (antibody, V domains shown, IgG format; constant regions not specified) VH: QVQLVESGGGLVQPGRSLRLSCAASGFTFSNAWMHWVRQAPGKGLEWVAQIKDRSNQYATYYAPSVKGRFTISRDDSKNSIYLQMNSLKTEDTAVYYCHYVHYAQASTVLPAFGVDAWGQGTTVTVSS VL: DIVMTQSPLSLPVTPGEPASISCRTSQELVHINRYIFLHWYQQKPGQAPRLLIYKVYNRFQGVPDRFSGSGSGTDFTLKISRVEAEDVGVYYCAQGTSVPYTFGQGTKLEIK | 205000 | 0.00223 | – | 9110 | 0.102 | 11200 | – | – | – | – | – | – | – | – | – |
| H1649L0943 (antibody, V domains shown, Dual-Ig, IgG; also called dBBDu183H1649/dBBDu072L0943) VH: QVQLVESGGGLVQPGRSLRLSCAASGFVFSNVWFHWVRQAPGKGLEWVAQIKDKYNAYADYYAPSVKERFTISRDDSKNSIYLQMNSLKTEDTAVYYCHYVHYASASTLLPAEGVDAWGQGTTVTVSS VL: DIVMTQSPLSLPVTPGEPASISCQPSEEVVHMNRNTYLHWYQQKPGQAPRLLIYKVSNLFPGVPDRFSGSGSGTDFTLKISRVEAEDVGVYYCAQGTHHPFTFGQGTKLEIK | – | – | – | – | – | – | 32.8 | 0.000468 | 14300 | 789 | 0.0481 | 61000 | – | – | – |
| dBBDu189/L112 (antibody, V domains shown, IgG format; constant regions not specified) VH: QVQLVESGGGLVQPGRSLRLSCAASGFTFSNAWMHWVRQAPGKGLEWIAQIKDRSNQYATYYAPSVKGRFTISRDDSKNSIYLQMNSLKTEDTAVYYCHYVHYAQASSLLPSFGVDAWGQGTTVTVSS VL: DIVMTQSPLSLPVTPGEPASISCTSDQELVHMNRHTYLHWYQQKPGQAPRLLIYKVYNRFPGVPDRFSGSGSGTDFTLKISRVEAEDVGVYYCAQGTSVPFTFGQGTKLEIK | 5760 | 0.0286 | 4980 | 331 | 0.01 | 30300 | – | – | – | – | – | – | – | – | – |
| H2591L0581 (antibody, V domains shown, Dual-Ig, IgG; also called H2591L581; dBBDu183H2591/dBBDu072L0581) VH: QVQLVESGGGLVQPGRSLRLSCAASGFKFSNVWFHWVRQAPGKGLEWVAQIKDYYNAYAGYYHPSVKGRFTISRDDSKNSIYLQMNSLKTEDTAVYYCHYVHYAAASTLLPAEGVDAWGQGTTVTVSS VL: DIVMTQSPLSLPVTPGEPASISCQPSQEVVHMNRNTYLHWYQQKPGQAPRLLIYKVSNRFPGVPDRFSGSGSGTDFTLKISRVEAEDVGVYYCAQGTSHPFTFGQGTKLEIK | – | – | – | – | – | – | 36.3 | 0.000742 | 20400 | 525 | 0.0535 | 102000 | – | – | – |
| dBBDu197 (antibody, V domains shown, Human IgG1; light chain GLS3000 (kappa)) VH: QVQLVESGGGLVQPGRSLRLSCAASGFTFSNAWMHWVRQAPGKGLEWVAQIKDRSNAYAAYYAPSVKGRFTISRDDSKNSIYLQMNSLKTEDTAVYYCHYVHYASASTVLPAFGVDAWGQGTTVTVSS VL: DIVMTQSPLSLPVTPGEPASISCRSSQSLVHSNRNTYLHWYQQKPGQAPRLLIYKVSNRFSGVPDRFSGSGSGTDFTLKISRVEAEDVGVYYCGQGTQVPYTFGQGTKLEIK | – | – | – | – | – | – | – | – | – | – | – | – | 2110 | 54400 | 96.1 |
| dBBDu183/L063 (antibody, V domains shown, IgG format; constant regions not specified) VH: QVQLVESGGGLVQPGRSLRLSCAASGFTFSNAWMHWVRQAPGKGLEWVAQIKDKGNAYAAYYAPSVKGRFTISRDDSKNSIYLQMNSLKTEDTAVYYCHYVHYASASTVLPAFGVDAWGQGTTVTVSS VL: DIVMTQSPLSLPVTPGEPASISCRSSQELVHTNRHTYLHWYQQKPGQAPRLLIYKVSNRFPGVPDRFSGSGSGTDFTLKISRVEAEDVGVYYCAQGTQVPFTFGQGTKLEIK | 3120 | 0.00457 | 1470 | 276 | 0.0157 | 56900 | – | – | – | – | – | – | – | – | – |
| H1673L0943 (antibody, V domains shown, Dual-Ig, IgG; also called dBBDu183H1673/dBBDu072L0943) VH: QVQLVESGGGLVQPGRSLRLSCAASGFVFSNVWFHWVRQAPGKGLEWVAQIKDKWNAYADYYAPSVKERFTISRDDSKNSIYLQMNSLKTEDTAVYYCHYIHYASASTLLPAEGIDAWGQGTTVTVSS VL: DIVMTQSPLSLPVTPGEPASISCQPSEEVVHMNRNTYLHWYQQKPGQAPRLLIYKVSNLFPGVPDRFSGSGSGTDFTLKISRVEAEDVGVYYCAQGTHHPFTFGQGTKLEIK | – | – | – | – | – | – | 59.1 | 0.000722 | 12200 | 21 | 0.00116 | 55000 | – | – | – |
| H1673L0581 (antibody, V domains shown, Dual-Ig, IgG; also called dBBDu183H1673/dBBDu072L0581) VH: QVQLVESGGGLVQPGRSLRLSCAASGFVFSNVWFHWVRQAPGKGLEWVAQIKDKWNAYADYYAPSVKERFTISRDDSKNSIYLQMNSLKTEDTAVYYCHYIHYASASTLLPAEGIDAWGQGTTVTVSS VL: DIVMTQSPLSLPVTPGEPASISCQPSQEVVHMNRNTYLHWYQQKPGQAPRLLIYKVSNRFPGVPDRFSGSGSGTDFTLKISRVEAEDVGVYYCAQGTSHPFTFGQGTKLEIK | – | – | – | – | – | – | 80.4 | 0.00096 | 11900 | 13.3 | 0.00106 | 79600 | – | – | – |
| H2594L0581 (antibody, V domains shown, Dual-Ig, IgG; also called H2594L581; dBBDu183H2594/dBBDu072L0581) VH: QVQLVESGGGLVQPGRSLRLSCAASGFKFSNVWFHWVRQAPGKGLEWVAQIKDYYNAYAGYYHPSVKGRFTISRDDSKNSIYLQMNSLKTEDTAVYYCHYVHYAAASQLLPAEGVDAWGQGTTVTVSS VL: DIVMTQSPLSLPVTPGEPASISCQPSQEVVHMNRNTYLHWYQQKPGQAPRLLIYKVSNRFPGVPDRFSGSGSGTDFTLKISRVEAEDVGVYYCAQGTSHPFTFGQGTKLEIK | – | – | – | – | – | – | 78.1 | 0.00163 | 20900 | 593 | 0.0584 | 98300 | – | – | – |
| dBBDu183/L067 (antibody, V domains shown, IgG format; constant regions not specified) VH: QVQLVESGGGLVQPGRSLRLSCAASGFTFSNAWMHWVRQAPGKGLEWVAQIKDKGNAYAAYYAPSVKGRFTISRDDSKNSIYLQMNSLKTEDTAVYYCHYVHYASASTVLPAFGVDAWGQGTTVTVSS VL: DIVMTQSPLSLPVTPGEPASISCQSSESLVHVNRHTYLHWYQQKPGQAPRLLIYKVYNRFPGVPDRFSGSGSGTDFTLKISRVEAEDVGVYYCAQGTSVPFTFGQGTKLEIK | 6200 | 0.00813 | 1310 | 217 | 0.0193 | 88900 | – | – | – | – | – | – | – | – | – |
| dBBDu167 (antibody, V domains shown, Human IgG1; light chain GLS3000 (kappa)) VH: QVQLVESGGGLVQPGRSLRLSCAASGFTFSNAWMHWVRQAPGKGLEWVAQIKDKGNLYAAYYAPSVKGRFTISRDDSKNSIYLQMNSLKTEDTAVYYCHYVHYASAGGGLPGFGVDAWGQGTTVTVSS VL: DIVMTQSPLSLPVTPGEPASISCRSSQSLVHSNRNTYLHWYQQKPGQAPRLLIYKVSNRFSGVPDRFSGSGSGTDFTLKISRVEAEDVGVYYCGQGTQVPYTFGQGTKLEIK | – | – | – | – | – | – | – | – | – | – | – | – | 1940 | 25700 | 92.5 |
| dBBDu183/L072 (antibody, V domains shown, IgG format; also called H183L072) VH: QVQLVESGGGLVQPGRSLRLSCAASGFTFSNAWMHWVRQAPGKGLEWVAQIKDKGNAYAAYYAPSVKGRFTISRDDSKNSIYLQMNSLKTEDTAVYYCHYVHYASASTVLPAFGVDAWGQGTTVTVSS VL: DIVMTQSPLSLPVTPGEPASISCQASQELVHMNRNTYLHWYQQKPGQAPRLLIYKVSNRFPGVPDRFSGSGSGTDFTLKISRVEAEDVGVYYCAQGTSVPFTFGQGTKLEIK | 4870 | 0.00593 | 1220 | 217 | 0.00785 | 36100 | – | – | – | – | – | – | – | – | – |
